Paper doi:10.1101/2020.02.05.923433 (bioRxiv, 2020)

Molecular target: T1, purified RASSF1 RA domain (human, UniProt Q9NS23-2 124-288)
T1 sequence: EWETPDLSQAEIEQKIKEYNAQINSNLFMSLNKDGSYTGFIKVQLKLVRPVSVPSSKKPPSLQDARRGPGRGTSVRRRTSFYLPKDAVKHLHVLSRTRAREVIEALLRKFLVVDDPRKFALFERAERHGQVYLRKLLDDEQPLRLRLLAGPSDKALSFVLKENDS
Assay: ITC

- Kd: 9.6 µM
B1: GEM-GDP (purified GEM used for ITC) (domain or fragment)
chain: STDSVISSESGNTYYRVVLIGEQGVGKSTLANIFAGVHDSMDSDCEVLGEDTYERTLMVDGESATIILLDMWENKGENEWLHDHCMQVGDAYLIVYSITDRASFEKASELRIQLRRARQTEDIPIILVGNKSDLVRCREVSV
